Test results reported in the supplement of paper PMC9170038.

Assays:
MS2 coat protein [1] = experiment: apparent KD of MS2 coat protein, switch OFF state (with FMN for OFF switches, without FMN for ON switches); designed switch direction (-1 OFF switch, 1 ON switch): -1; higher = weaker reporter binding; conditions: FMN input: 0 or 200 uM; Eterna round: R93 (includes R88 designs)
How it was run: (§1)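 SNAP-549-labelled MS2 coat protein was titrated onto designed RNA switches that had been transcribed on-chip from Illumina sequencing clusters. Amounts doubled from 0.7 or 1.5 nM to 3 µM in 100 mM Tris-HCl pH 7.5, 80 mM KCl, 4 mM MgCl2, with constant ligand or without. Apparent KD is the median per design of normalised cluster binding-curve fits.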

MS2 coat protein [2] = experiment: apparent KD of MS2 coat protein, switch ON state; designed switch direction (-1 OFF switch, 1 ON switch): -1; higher = weaker reporter binding; conditions: FMN input: 0 or 200 uM; Eterna round: R93 (includes R88 designs)
How it was run: as §1

Sequence | apparent KD of MS2 coat protein (MS2 coat protein [1]) [nM] | apparent KD of MS2 coat protein (MS2 coat protein [2]) [nM]
AGGAAACAUGAGGAUCACCCAUGUCAGGAUAUUUGAAAGAAAAGAAAAGAAAGAAGAAGAAGAAGGGACAAGAA [Narmer] | 31.1 | 27.6
AGGAAACAUGAGGAUCACCCAUGUGAGGAUAUAGAAAAGAAAAGAAAAGAAAGAAGAACUAGAAGGUACAAGAA [Menkauhor Kaiu] | 26.8 | 21
AGGAAACAUGAGGAUCACCCAUGUGAGGAUAUGUAAAAGAAAAGAAAAGAAAGAAGAAACAGAAGGCACAAGAA [Nynetjer] | 49.1 | 49.4
AGGAAGUGAGGAUAUGCAUCAUAUAGUGGACGCUAUAGGAUGUAGAAGGCACAUGAGGAUCACCCAUGUUUAAA [EX4 Malc#40] | 32 | 29
AGGAUGUCAGGAUAUGCGUGAAGAAUAAAACAAAUAACAACGCAGAAGGGACAUGAGGAUCACCCAUGUUAAGA [May 46] | 68.3 | 45.2
AGGAUGUCAGGAUAUGUGUAAAGAAUAAAACAAAUAACAACACAGAAGGGACAUGAGGAUCACCCAUGUUACGA [May 43] | 37.3 | 31.1
AGGAUGUCAGGAUAUGUGUAAAGAAUAAAAGAAAUAACAACACAGAAGGGACAUGAGGAUCACCCAUGUUAAAA [May 35] | 44.3 | 48.8
AGGGAGUCAGGAUAUCGGAAAACAAAACAACGAAAAAAAGACGAGAAGGGACAUGAGGAUCACCCAUGUAAGAA [milkweed 17] | 21.6 | 41.4
AGGGAGUGAGGAUAUGCGAAAGAAAAAGAAGGAAAAAAAAAGCAGAAGGUACAUGAGGAUCACCCAUGUAAAAA [milkweed 7] | 16.9 | 26.5
AGUCAUACAGGAUAUACAUGAGGAUCACCCAUGUUUAUCCUAAAAGGGUGAUCCUCAUGUAGAAGGGUAUGACA [EX3 209: Super Stable 9] | 14.5 | 23.7
AGUGAGUGAGGAUAUUACUGAAGAAUAAAAGAAAUAACAAGUAAGAAGGCACAUGAGGAUCACCCAUGUACACA [May 61] | 22 | 22.4
AGUUGGCGAGGAUAUACAUGAGGAUCACCCAUGUAAAAUAAAUAAAAAGGGAAAAAGAGUAGAAGGCGCUGACA [73%, Moding Norbert Elias, 8] | 192 | 42.6
AGUUGGCGAGGAUAUACAUGAGGAUCACCCAUGUGGAAGAAAAAAGUGAGAAAGAAAAGUAGAAGGCGCUGACA [Mat - Exclusion 3 - Lego mod - D87] | 316 | 67.5
AUAAAACAUGAGGAUCACCCAUGUGAGGAUAUCUGAAAAAAAAAAAGAAAAAAAAAAAAGAGAAGGCACAAUAA [Amethyst 44] | 79.4 | 65.1
AUAAAACAUGAGGAUCACCCAUGUGAGGAUAUGCGAAAUAAAGAAAUAAAUAAAUAAAGCAGAAGGCACAAUAA [Ex 1 Tesla 1] | 21.9 | 34.6
AUAAAGUGAGGAUAUGCUAAGAAGUAAAUAGACAAAUAAAUGCAGAAGGCACAUGAGGAUCACCCAUGUAAGAA [Ex 4 Tesla 4] | 26.2 | 35.9
AUCUACCUAGGAUAUACAUGAGGAUCACCCAUGUACAGUUUCAACUAGGGAAACUCACGUAGAAGGAGGUAGAU [JR_Exc003_Sub1209] | 25.2 | 48.2
